This is an account of results in PMC10381965.

The target in this assay is CENP-ΔQU complex (CENP-Q^1–294 and CENP-U^30–266) (S. cerevisiae) (UniProt P53298). In words: ITC; CENP-A^END peptides (0.87 to 2.18 mM) titrated into CENP-QU (66 to 180 μM) in the cell; 20°C; 20 mM Hepes pH 7.5, 100 mM NaCl, 1 mM TCEP; single-site binding model; triplicate. In general terms: Isothermal titration calorimetry measures the heat released or taken up as one component is titrated into another.

A word on the Kd: it is the equilibrium constant for the complex coming apart. Ac-DASINDRALSLLQRTRATDAW-NH2 [CENP-A^END-1 peptide] showed a dissociation constant (Kd) of 11500 nM. This counts as double-digit micromolar.

On to Ac-AGDQQSINDRALSLLQRTRATKNW-NH2 [CENP-A^END-2 peptide], for which the Kd worked out at 1000 nM.

The molecule Ac-AGDQQSINDAALSLLQRTRATKNW-NH2 [CENP-A^END-2-R37A peptide] came in with a fold reduction of affinity against the unchanged CENP-A^END peptide of 15 fold.

Turning to Ac-AGDQQSINDRALSLLQRTRATKNLFPRREERRRW-NH2 [CENP-A^END-3 peptide], the Kd came to 720 nM. That is a sub-micromolar value.
